Legend:
[1] = biological target: T1, mouse factor H (mouse, UniProt P06909 19-1234); assay: SPR
[2] = biological target: T1, mouse factor H; assay: ELISA
[3] = biological target: human factor H (human, UniProt P08603 19-1231); assay: ELISA
Sequence of human factor H (P08603 19-1231): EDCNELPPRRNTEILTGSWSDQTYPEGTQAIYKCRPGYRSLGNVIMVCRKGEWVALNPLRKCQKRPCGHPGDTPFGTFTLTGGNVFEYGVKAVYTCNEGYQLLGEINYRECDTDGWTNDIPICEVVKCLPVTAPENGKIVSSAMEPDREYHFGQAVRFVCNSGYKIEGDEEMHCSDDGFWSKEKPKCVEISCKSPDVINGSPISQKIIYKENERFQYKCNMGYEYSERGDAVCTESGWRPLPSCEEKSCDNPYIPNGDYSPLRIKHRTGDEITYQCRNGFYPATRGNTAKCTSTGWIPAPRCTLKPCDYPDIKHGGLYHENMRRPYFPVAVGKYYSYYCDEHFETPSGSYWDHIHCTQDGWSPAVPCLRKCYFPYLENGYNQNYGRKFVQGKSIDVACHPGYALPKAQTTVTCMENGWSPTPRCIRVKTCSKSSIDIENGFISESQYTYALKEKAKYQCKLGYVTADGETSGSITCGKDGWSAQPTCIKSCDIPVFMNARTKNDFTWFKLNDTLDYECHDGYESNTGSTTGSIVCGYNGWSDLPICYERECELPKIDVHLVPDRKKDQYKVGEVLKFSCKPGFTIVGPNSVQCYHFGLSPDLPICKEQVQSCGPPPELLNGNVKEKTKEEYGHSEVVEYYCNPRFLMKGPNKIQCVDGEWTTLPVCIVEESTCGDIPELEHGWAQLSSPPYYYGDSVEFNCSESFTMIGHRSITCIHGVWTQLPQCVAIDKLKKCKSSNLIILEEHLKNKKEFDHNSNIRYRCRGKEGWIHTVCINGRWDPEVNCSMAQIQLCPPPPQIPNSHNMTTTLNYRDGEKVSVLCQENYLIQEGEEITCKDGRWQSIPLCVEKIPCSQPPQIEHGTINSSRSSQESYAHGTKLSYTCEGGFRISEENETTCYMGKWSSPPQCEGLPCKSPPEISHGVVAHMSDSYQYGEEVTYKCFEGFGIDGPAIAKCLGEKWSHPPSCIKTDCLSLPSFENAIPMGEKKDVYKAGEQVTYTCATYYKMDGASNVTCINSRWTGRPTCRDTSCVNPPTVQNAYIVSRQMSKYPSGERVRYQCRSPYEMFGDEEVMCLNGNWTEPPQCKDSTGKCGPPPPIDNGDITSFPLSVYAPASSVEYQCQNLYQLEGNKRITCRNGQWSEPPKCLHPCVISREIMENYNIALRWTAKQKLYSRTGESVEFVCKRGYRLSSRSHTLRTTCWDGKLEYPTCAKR

T1 sequence (P06909 19-1234): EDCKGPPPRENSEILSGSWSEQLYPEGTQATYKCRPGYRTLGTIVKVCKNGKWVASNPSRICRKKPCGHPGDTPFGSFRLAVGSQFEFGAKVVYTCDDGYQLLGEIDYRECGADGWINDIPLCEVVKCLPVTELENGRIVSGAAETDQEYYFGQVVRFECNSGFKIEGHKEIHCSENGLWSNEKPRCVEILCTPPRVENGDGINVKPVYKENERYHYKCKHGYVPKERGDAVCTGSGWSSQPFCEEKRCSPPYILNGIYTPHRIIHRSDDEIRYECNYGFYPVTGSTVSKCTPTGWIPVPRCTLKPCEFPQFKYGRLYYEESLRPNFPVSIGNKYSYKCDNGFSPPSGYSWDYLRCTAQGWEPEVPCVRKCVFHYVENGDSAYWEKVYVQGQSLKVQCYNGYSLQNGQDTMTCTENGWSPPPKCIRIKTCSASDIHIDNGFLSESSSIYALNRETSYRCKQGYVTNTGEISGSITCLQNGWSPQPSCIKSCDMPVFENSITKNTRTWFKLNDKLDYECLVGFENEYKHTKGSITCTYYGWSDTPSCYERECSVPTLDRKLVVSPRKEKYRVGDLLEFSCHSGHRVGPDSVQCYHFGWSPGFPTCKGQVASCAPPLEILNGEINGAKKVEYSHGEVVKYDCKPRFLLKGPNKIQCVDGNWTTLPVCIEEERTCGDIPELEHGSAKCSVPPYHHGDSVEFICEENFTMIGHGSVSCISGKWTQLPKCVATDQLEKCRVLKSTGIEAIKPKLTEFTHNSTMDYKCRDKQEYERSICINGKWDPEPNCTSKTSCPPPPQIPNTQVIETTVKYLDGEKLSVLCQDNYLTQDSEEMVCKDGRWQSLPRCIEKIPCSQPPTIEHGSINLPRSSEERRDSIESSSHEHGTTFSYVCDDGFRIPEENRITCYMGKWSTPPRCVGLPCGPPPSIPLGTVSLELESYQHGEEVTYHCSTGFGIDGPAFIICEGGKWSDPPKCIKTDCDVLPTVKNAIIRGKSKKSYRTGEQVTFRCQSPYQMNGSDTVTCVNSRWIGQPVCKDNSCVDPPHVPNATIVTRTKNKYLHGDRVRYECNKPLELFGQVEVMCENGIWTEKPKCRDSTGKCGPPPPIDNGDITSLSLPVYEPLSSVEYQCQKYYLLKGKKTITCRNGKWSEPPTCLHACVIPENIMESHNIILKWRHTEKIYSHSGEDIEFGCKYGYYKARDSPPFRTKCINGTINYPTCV

Binder	binding result [1]	binding result [2]	binding result [3]
CspZ from B. burgdorferi B31 (CspZB31), untagged recombinant protein (natural protein, Borrelia burgdorferi strain B31) RLNQRNINELKIFVEKAKYYSIKLDAIYNECTGAYNDIMTYSEGTFSDQSKVNQAISIFKKDNKIVNKFKELEKIIEEYKPMFLSKLIDDFAIELDQAVDNDVSNARHVADSYKKLRKSVVLAYIESFDVISSKFVDSKFVEASKKFVNKAKEFVEENDLIALECIVKTIGDMVNDREINSRSRYNNFYKKEADFLGAAVELEGAYKAIKQTLL	binds	–	–
histidine-tagged CspZB31 (natural protein, Borrelia burgdorferi strain B31) RLNQRNINELKIFVEKAKYYSIKLDAIYNECTGAYNDIMTYSEGTFSDQSKVNQAISIFKKDNKIVNKFKELEKIIEEYKPMFLSKLIDDFAIELDQAVDNDVSNARHVADSYKKLRKSVVLAYIESFDVISSKFVDSKFVEASKKFVNKAKEFVEENDLIALECIVKTIGDMVNDREINSRSRYNNFYKKEADFLGAAVELEGAYKAIKQTLL	–	binds	binds

From doi:10.1101/2022.09.13.507797 (bioRxiv, 2022)
